B1: vRNA 5' (ssRNA)
RNA: CGCACCGGGGAUCCUAGGC
B2: vRNA 5'G (ssRNA)
RNA: GCGCACCGGGGAUCCUAGGC

Assays:
LASV L protein Strep407 [1] = biological target: T1, LASV L protein Strep407 (Lassa virus Bantou 289, UniProt A0A3S8NV63 1-2217); assay: EMSA; 0-1 uM L, 0.6 uM RNA; 4 mM Mg2+; […]) pH 7.0, 150 mM NaCl ([…]; conditions: protein: recombinant; tags: internal StrepII-tag inserted after residue 407; chain copies: 2; label: 32P (5' end, T4 PNK); single strand
LASV L protein Strep407 [2] = biological target: T1, LASV L protein Strep407; assay: EMSA; […]) pH 7.0, 150 mM NaCl ([…]; conditions: protein: recombinant; tags: internal StrepII-tag inserted after residue 407; chain copies: 2; label: 32P (5' end, T4 PNK); single strand

Binder | binding result (LASV L protein Strep407 [1]) | binding result (LASV L protein Strep407 [2])
B1 | binds | –
B2 | – | binds

— paper PMC6527160
